{"source": "patent WO2002020615A2", "key": {"[1]": {"target": "human chemokine receptor 5 (CCR5) (human) (UniProt P51681)", "assay": "cell-based or functional assay"}, "murine CCR5 (murine)": {"target": "murine CCR5 (murine) (UniProt P51682)", "sequence (P51682 whole entry)": "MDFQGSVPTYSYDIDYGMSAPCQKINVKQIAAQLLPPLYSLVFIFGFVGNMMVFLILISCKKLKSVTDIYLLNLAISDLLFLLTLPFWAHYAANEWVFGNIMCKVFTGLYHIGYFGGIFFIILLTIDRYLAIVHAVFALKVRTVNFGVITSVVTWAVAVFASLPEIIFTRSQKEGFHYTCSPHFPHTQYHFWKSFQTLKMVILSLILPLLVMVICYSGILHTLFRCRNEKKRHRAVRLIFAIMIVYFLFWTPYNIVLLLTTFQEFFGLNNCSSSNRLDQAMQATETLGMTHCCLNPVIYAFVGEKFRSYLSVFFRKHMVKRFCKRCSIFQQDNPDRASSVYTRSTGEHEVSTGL", "assay": "cell-based or functional assay"}}}
{"substance": "chemokine-toxin fusion protein RANTES-PE38", "values": [{"measurement": "cytotoxicity on CCR5 positive CHO cells (48 h): concentration of complete destruction", "setting": "[1]", "result": 2, "unit": "nM"}, {"measurement": "cytotoxicity on CHO cells expressing human CCR5 (40 h): concentration of complete killing", "setting": "[1]", "result": 10, "unit": "nM"}, {"measurement": "cytotoxicity on CHO cells expressing murine CCR5 (40 h, light microscopy)", "setting": "murine CCR5 (murine)", "result": 10, "unit": "nM"}]}
